Measured values taken from patent publication US20190367592A1 (AC IMMUNE, published 2019).

Assays:
[1] = target: T1, recombinant human Tau monomer, 2N4R isoform (amino acids 2-441) (human, UniProt P10636-8 2-441); assay: SPR; Normalized Rmax post-stress (2 weeks 40 C) / pre-stress
T1 construct: range 2-441; N-terminal His-tag removed with TEV protease; also called monomeric Tau
Procedure: (§1) Briefly, IgGs in 1 mL culuture were captured using tip columns that were custom packed with 20 μL MabSelect SuRe resin (Glygen Corp & GE Healthcare). After washing with 1×PBS pH 7.4, IgGs were eluted into 160 μL of 50 mM phosphoric acid pH 3 and neutralized with 12 μL of 20×PBS pH 11. MabSelect SuRe tip columns were stripped in 0.1 M NaOH and regenerated with 1×PBS pH 7.4 for consecutive use of up to 15 times. Purified antibodies in 96-well format were normalized to 0.1 mg/ml using a Hamilton Star liquid handling robot. The “pre-stress” samples were kept at approximately 4° C. and the “post-stress” samples were incubated at 40° C. for two weeks in a PCR machine. Functional stability of the variants was compared by running surface plasmon resonance kinetics experiments with the “pre-stress” and “post-stress” antibody preps. The antibodies were assessed using a human antibody capture CM5 Series S chip generated using the GE Biacore human IgG capture kit and a Biacore T200 instrument. Antibodies diluted to 2 μg/ml were immobilized using a 15 second injection time and 10 μl/min flow rate. Binding to Tau monomer at 0 nM, 26.5 nM and 265 nM, at 25° C., using a flow rate of 40 μl/min, was monitored for a 180 second association phase followed by a 300 second dissociation phase. Samples were run in 10 mM HEPES pH7.4, 150 mM NaCl, 0.05% Tween 20 (HBSP) using a multi-cycle kinetics format. Data was analyzed using BIAevaluation software, fitting a 1:1 binding model. The resulting affinity (KD) values are shown in FIG. 8A-D. A Stability Index was also calculated, using the rationale that affinity-compromised antibodies (due for example to deamidation of key residues) are expected to contribute equally to the IgG capture level (“Ligand Level”) but to contribute less to the measured Tau binding, and that this would be reflected in the experimentally derived value for Rmax. To account for variations in the amount of each antibody captured, Rmax was normalized for the antibody capture level (as measured by “Ligand Level”, Response Units immobilized during antibody capture). Thus Normalized Rmax is calculated as the experimental Rmax (units=RU) divided by the “Ligand Level” (Evaluation output representing the RU captured during the hIgG capture step, units=RU), and Stability Index is calculated here as Normalized Rmax (post-stress) divided by Normalized Rmax (pre-stress).

[2] = target: T1, recombinant human Tau monomer, 2N4R …; assay: SPR, captured IgG, Tau monomer analyte, 1:1 model; fit-quality column: Yes
Procedure: as §1

T1 sequence (P10636 other isoform, or with tags, fused parts or gaps limits assumed): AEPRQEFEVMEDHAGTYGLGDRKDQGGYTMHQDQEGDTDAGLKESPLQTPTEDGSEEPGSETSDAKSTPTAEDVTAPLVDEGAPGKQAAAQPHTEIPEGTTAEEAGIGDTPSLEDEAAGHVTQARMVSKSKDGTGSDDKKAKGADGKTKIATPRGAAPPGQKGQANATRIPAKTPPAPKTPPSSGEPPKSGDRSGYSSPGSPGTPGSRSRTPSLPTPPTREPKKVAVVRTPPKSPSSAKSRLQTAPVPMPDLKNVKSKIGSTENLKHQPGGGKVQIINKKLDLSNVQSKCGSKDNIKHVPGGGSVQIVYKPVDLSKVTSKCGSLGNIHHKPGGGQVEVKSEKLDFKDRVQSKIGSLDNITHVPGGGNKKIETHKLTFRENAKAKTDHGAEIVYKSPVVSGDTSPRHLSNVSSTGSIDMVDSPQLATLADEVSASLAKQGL

Row | Stability Index [1] | Kd [2] | Binder
1 | 81% | 7.5 nM | hu37D3-H9.v31.9 (antibody, V domains shown) VH: EVQLVESGGGLVQPGGSLRLSCAASGLIFRSYGMSWVRQAPGKGLEWVATINSGGTYTYYPDSVKGRFTISRDNSKNTLYLQMNSLRAEDTAVYYCANSYSGAMDYWGQGTLVTVSS VL: DDVLTQTPLSLPVTPGQPASISCRSSQSIVHSNANIYFEWYLQKPGQSPQLLIYKVSNRFSGVPDRFSGSGSGTDFTLKISRVEAEDVGVYYCFQGSLVPWTFGQGTKVEIK
2 | 96% | 1.2 nM | hu37D3.v28.A4 (antibody, V domains shown, also called hu37D3-H9.v28.A4) VH: EVQLVESGGGLVQPGGSLRLSCAASGLIFRSYGMSWVRQAPGKGLEWVATINSGGTYTYYPDSVKGRFTISRDNSKNTLYLQMNSLRAEDTAVYYCANSYSGAMDYWGQGTLVTVSS VL: DDVLTQTPLSLPVTPGQPASISCRSSQSIVHSNGNTYLEWYLQKPGQSPQLLIYKVSNRFSGVPDRFSGSGSGTDFTLKISRVEAEDVGVYYCFQGSLVPWTFGQGTKVEIK
3 | 88% | 4.4 nM | hu37D3.v28.57 (antibody, V domains shown) VH: EVQLVESGGGLVQPGGSLRLSCAASGLIFRSYGMSWVRQAPGKGLEWVATINSGGTYTYYPDSVKGRFTISRDNSKNTLYLQMNSLRAEDTAVYYCANSYSGAMDYWGQGTLVTVSS VL: DDVLTQTPLSLPVTPGQPASISCRSSQSIVHSNFNTYFEWYLQKPGQSPQLLIYKVSNRFSGVPDRFSGSGSGTDFTLKISRVEAEDVGVYYCFQGSLVPWTFGQGTKVEIK
4 | 82% | 24.8 nM | hu37D3.v28.54 (antibody, V domains shown) VH: EVQLVESGGGLVQPGGSLRLSCAASGLIFRSYGMSWVRQAPGKGLEWVATINSGGTYTYYPDSVKGRFTISRDNSKNTLYLQMNSLRAEDTAVYYCANSYSGAMDYWGQGTLVTVSS VL: EDVLTQTPLSLPVTPGQPASISCRSSQSIVHSLGNTYFEWYLQKPGQSPQLLIYKVSNRFSGVPDRFSGSGSGTDFTLKISRVEAEDVGVYYCFQGSLVPWTFGQGTKVEIK
5 | 83% | 31.8 nM | hu37D3.v28.B2 (antibody, V domains shown) VH: EVQLVESGGGLVQPGGSLRLSCAASGLIFRSYGMSWVRQAPGKGLEWVATINSGGTYTYYPDSVKGRFTISRDNSKNTLYLQMNSLRAEDTAVYYCANSYSGAMDYWGQGTLVTVSS VL: DDVLTQTPLSLPVTPGQPASISCRSSQSIVHSMGNTFFEWYLQKPGQSPQLLIYKVSNRFSGVPDRFSGSGSGTDFTLKISRVEAEDVGVYYCFQGSLVPWTFGQGTKVEIK
6 | 101% | 24.3 nM | hu37D3.v28.B1 (antibody, V domains shown) VH: EVQLVESGGGLVQPGGSLRLSCAASGLIFRSYGMSWVRQAPGKGLEWVATINSGGTYTYYPDSVKGRFTISRDNSKNTLYLQMNSLRAEDTAVYYCANSYSGAMDYWGQGTLVTVSS VL: DDVLTQTPLSLPVTPGQPASISCRSSQSIVHSIGNTFFEWYLQKPGQSPQLLIYKVSNRFSGVPDRFSGSGSGTDFTLKISRVEAEDVGVYYCFQGSLVPWTFGQGTKVEIK
7 | 82% | 38.3 nM | hu37D3.v28.A6 (antibody, V domains shown) VH: EVQLVESGGGLVQPGGSLRLSCAASGLIFRSYGMSWVRQAPGKGLEWVATINSGGTYTYYPDSVKGRFTISRDNSKNTLYLQMNSLRAEDTAVYYCANSYSGAMDYWGQGTLVTVSS VL: DDVLTQTPLSLPVTPGQPASISCRSSQSIVHSNGNTYLEWYLQKPGQSPQLLIYKVSNRFSGVPDRFSGSGSGTDFTLKISRVEAEDVGVYYCFQGSHVPWTFGQGTKVEIK
8 | 76% | 22.9 nM | hu37D3.v28.53 (antibody, V domains shown) VH: EVQLVESGGGLVQPGGSLRLSCAASGLIFRSYGMSWVRQAPGKGLEWVATINSGGTYTYYPDSVKGRFTISRDNSKNTLYLQMNSLRAEDTAVYYCANSYSGAMDYWGQGTLVTVSS VL: EDVLTQTPLSLPVTPGQPASISCRSSQSIVHSRGNTYFEWYLQKPGQSPQLLIYKVSNRFSGVPDRFSGSGSGTDFTLKISRVEAEDVGVYYCFQGSLVPWTFGQGTKVEIK
9 | 82% | 2.6 nM | hu37D3.v28.55 (antibody, V domains shown) VH: EVQLVESGGGLVQPGGSLRLSCAASGLIFRSYGMSWVRQAPGKGLEWVATINSGGTYTYYPDSVKGRFTISRDNSKNTLYLQMNSLRAEDTAVYYCANSYSGAMDYWGQGTLVTVSS VL: DDVLTQTPLSLPVTPGQPASISCRSSQSIVHSNQNTYFEWYLQKPGQSPQLLIYKVSNRFSGVPDRFSGSGSGTDFTLKISRVEAEDVGVYYCFQGSLVPWTFGQGTKVEIK
10 | 76% | 5.4 nM | hu37D3.v28.56 (antibody, V domains shown) VH: EVQLVESGGGLVQPGGSLRLSCAASGLIFRSYGMSWVRQAPGKGLEWVATINSGGTYTYYPDSVKGRFTISRDNSKNTLYLQMNSLRAEDTAVYYCANSYSGAMDYWGQGTLVTVSS VL: DDVLTQTPLSLPVTPGQPASISCRSSQSIVHSNYNTYFEWYLQKPGQSPQLLIYKVSNRFSGVPDRFSGSGSGTDFTLKISRVEAEDVGVYYCFQGSLVPWTFGQGTKVEIK
11 | 46% | 20.1 nM | hu37D3.v28.E1 (antibody, V domains shown) VH: EVQLVESGGGLVQPGGSLRLSCAASGLIFRSYGMSWVRQAPGKGLEWVATINSGGTYTYYPDSVKGRFTISRDNSKNTLYLQMNSLRAEDTAVYYCANSYSGAMDYWGQGTLVTVSS VL: DDVLTQTPLSLPVTPGQPASISCRSSQSIVNSNGNTYFEWYLQKPGQSPQLLIYKVSNRFSGVPDRFSGSGSGTDFTLKISRVEAEDVGVYYCFQGSLVPWTFGQGTKVEIK
12 | 73% | 5.7 nM | hu37D3.v28.D1 (antibody, V domains shown) VH: EVQLVESGGGLVQPGGSLRLSCAASGLIFRSYGMSWVRQAPGKGLEWVATINSGGTYTYYPDSVKGRFTISRDNSKNTLYLQMNSLRAEDTAVYYCANSYSGAMDYWGQGTLVTVSS VL: DDVLTQTPLSLPVTPGQPASISCRSSQSIVHANGNTYFEWYLQKPGQSPQLLIYKVSNRFSGVPDRFSGSGSGTDFTLKISRVEAEDVGVYYCFQGSLVPWTFGQGTKVEIK
13 | 80% | 17.6 nM | hu37D3.v28.52 (antibody, V domains shown) VH: EVQLVESGGGLVQPGGSLRLSCAASGLIFRSYGMSWVRQAPGKGLEWVATINSGGTYTYYPDSVKGRFTISRDNSKNTLYLQMNSLRAEDTAVYYCANSYSGAMDYWGQGTLVTVSS VL: EDVLTQTPLSLPVTPGQPASISCRSSQSIVHSKGNTYFEWYLQKPGQSPQLLIYKVSNRFSGVPDRFSGSGSGTDFTLKISRVEAEDVGVYYCFQGSLVPWTFGQGTKVEIK
14 | 75% | 9.6 nM | hu37D3.v28.C2 (antibody, V domains shown) VH: EVQLVESGGGLVQPGGSLRLSCAASGLIFRSYGMSWVRQAPGKGLEWVATINSGGTYTYYPDSVKGRFTISRDNSKNTLYLQMNSLRAEDTAVYYCANSYSGAMDYWGQGTLVTVSS VL: DDVLTQTPLSLPVTPGQPASISCRSSQSIVHSNDNTYFEWYLQKPGQSPQLLIYKVSNRFSGVPDRFSGSGSGTDFTLKISRVEAEDVGVYYCFQGSLVPWTFGQGTKVEIK
15 | 72% | 32.6 nM | hu37D3.v28.A2 (antibody, V domains shown) VH: EVQLVESGGGLVQPGGSLRLSCAASGLIFRSYGMSWVRQAPGKGLEWVATINSGGTYTYYPDSVKGRFTISRDNSKNTLYLQMNSLRAEDTAVYYCANSYSGAMDYWGQGTLVTVSS VL: DDVLTQTPLSLPVTPGQPASISCRSSQSIVHSNGNTYFEWYLQKPGQSPQLLIYKVSNRFSGVPDRFSGSGSGTDFTLKISRVEAEDVGVYYCFQGSHVPWTFGQGTKVEIK
16 | 46% | 85.6 nM | hu37D3.v28.B6 (antibody, V domains shown) VH: EVQLVESGGGLVQPGGSLRLSCAASGLIFRSYGMSWVRQAPGKGLEWVATINSGGTYTYYPDSVKGRFTISRDNSKNTLYLQMNSLRAEDTAVYYCANSYSGAMDYWGQGTLVTVSS VL: DDVLTQTPLSLPVTPGQPASISCRSSQSIVHSDGNTRFEWYLQKPGQSPQLLIYKVSNRFSGVPDRFSGSGSGTDFTLKISRVEAEDVGVYYCFQGSLVPWTFGQGTKVEIK
17 | 77% | 1.4 nM | hu37D3.v28.C1 (antibody, V domains shown) VH: EVQLVESGGGLVQPGGSLRLSCAASGLIFRSYGMSWVRQAPGKGLEWVATINSGGTYTYYPDSVKGRFTISRDNSKNTLYLQMNSLRAEDTAVYYCANSYSGAMDYWGQGTLVTVSS VL: DDVLTQTPLSLPVTPGQPASISCRSSQSIVHSNNNTYFEWYLQKPGQSPQLLIYKVSNRFSGVPDRFSGSGSGTDFTLKISRVEAEDVGVYYCFQGSLVPWTFGQGTKVEIK
